Laboratory results reported in PMC9113379 (Cell & Bioscience, 2022).
Where a chain is given by its changes, count along the chain named.

Key:
[1] = target: T1, SARS-CoV-2 S protein RBD domain (wild type) (SARS-CoV-2, UniProt P0DTC2); assay: ELISA; conditions: both partners purified
[2] = target: T1, SARS-CoV-2 S protein RBD domain (wild …); assay: SPR; conditions: both partners purified

B1: REGN10933 mAb (antibody, V domains shown)
VH: QVQLVESGGGLVKPGGSLRLSCAASGFTFSDYYMSWIRQAPGKGLEWVSYITYSGSTIYYADSVKGRFTISRDNAKSSLYLQMNSLRAEDTAVYYCARDRGTTMVPFDYWGQGTLVTVSS
VL: DIQMTQSPSSLSASVGDRVTITCQASQDITNYLNWYQQKPGKAPKLLIYAASNLETGVPSRFSGSGSGTDFTFTISGLQPEDIATYYCQQYDNLPLTFGGGTKVEIK
- binding result [1]: binds

B2: CB6 mAb (antibody, V domains shown)
VH: EVQLVESGGGLVQPGGSLRLSCAASGFTVSSNYMSWVRQAPGKGLEWVSVIYSGGSTFYADSVKGRFTISRDNSMNTLFLQMNSLRAEDTAVYYCARVLPMYGDYLDYWGQGTLVTVSS
VL: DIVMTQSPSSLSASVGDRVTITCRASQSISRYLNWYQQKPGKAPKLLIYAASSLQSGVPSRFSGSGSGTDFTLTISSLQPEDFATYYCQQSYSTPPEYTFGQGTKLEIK
- binding result [1]: binds

B3: R3P2-A2 mAb (antibody, V domains shown)
VH: QVQLVQSGGGLIQPGGSLRLSCAASGVTVSSNYMSWVRQAPGRGLEWVSLIYPGGSTYYADSVKGRFTISRDNSRNTLYLQMNSLRAEDTAVYYCARDLSEKGGMDVWGQGTMVTVSS
VL: EIVMTQSPSVLPLFPGESGSLSCRASQNVGDFLAWYQHKPGQAPKLLIYGATNRPTGIPDRFSGTGSGTDFTLTISRMEPEDFAVYFCQQYGTSPPITFGPGTKVDIK
- Kd [2]: 2.32 nM

B4: R3P1-E4 mAb (antibody, V domains shown)
VH: B3 VH with M113T
VL: DIVMTQSPSSLSASVGDRVTITCRASQGISSYLAWYQQKPGKAPKLLIYAASTLQSGVPSRFSGSGSGTDFTLTISSLQPEDFATYYCQQLNSYPRFGPGTKVEIK
- Kd [2]: 0.82 nM

B5: R3P2-G1 mAb (antibody, V domains shown)
VH: B3 VH with M113T
VL: QAVLTQPPSVSVAPGKTARITCGGNHIGSKSVNWYQQKSGQAPVLVIYSDSDRPSGIPARFSGSNSGDTATLTISRVEAGDEADYYCQVWDNRSDHWVFGGGTQLTVL
- binding result [1]: binds

B6: R3P2-B5 mAb (antibody, V domains shown)
VH: B3 VH with M113L
VL: EIVMTQSPGTLSLSPGERVTLSCRTSQSVSRFFSWYQQKPGQAPRLLIHTASTRATDIPDRFSASGSGTDFTLTISRLEPEDSAMYYCQHYGASPYTFGQGTKVDIK
- binding result [1]: binds
